Test results published in US7125850B2, “Methods of identifying inhibitors of GADD45 polypeptide activity, and inhibitors of such activity” (The United States of America as represented by the …, priority 1999, dated 2006).

B1: rGADD45: full length recombinant human GADD45 polypeptide (SEQ ID NO:2), bacterially expressed, histidine tag removed (protein, listed as Rattus norvegicus)
chain: MTLEEFSAAEQKIERMDTVGDALEEVLSKARSQRTITVGVYEAAKLLNVDPDNVVLCLLAADEDDDRDVALQIHFTLIRAFCCENDINILRVSNPGRLAELLLLENDKSPAESGGLAQTPDLHCVLVTNPHSSQWKDPALSQLICFCRESRYMDQWVPVINLPER
modifications: rat growth arrest and DNA-damage-inducible protein (rGADD45)
B2: GADD45 Δ72–166: truncated rGADD45 containing the first 71 amino acid residues (protein, listed as Homo sapiens)
chain: MTLEEFSAGEQKTERMDKVGDALEEVLSKALSQRTITVGVYEAAKLLNVDPDNVVLCLLAADEDDDRDVAL
B3: NAP-1: negative control protein of similar size and charge as GADD45 (protein, UniProt P55209 2-388, looked up)
Nucleosome assembly protein …: ADIDNKEQSELDQDLDDVEEVEEEETGEETKLKARQLTVQMMQNPQILAALQERLDGLVETPTGYIESLPRVVKRRVNALKNLQVKCAQIEAKFYEEVHDLERKYAVLYQPLFDKRFEIINAIYEPTEEECEWKPDEEDEISEELKEKAKIEDEKKDEEKEDPKGIPEFWLTVFKNVDLLSDMVQEHDEPILKHLKDIKVKFSDAGQPMSFVLEFHFEPNEYFTNEVLTKTYRMRSEPDDSDPFSFDGPEIMGCTGCQIDWKKGKNVTLKTIKKKQKHKGRGTVRTVTKTVSNDSFFNFFAPPEVPESGDLDDDAEAILAADFEIGHFLRERIIPRSVLYFTGEAIEDDDDDYDEEGEEADEEGEEEGDEENDPDYDPKKDQNPAEC
B4: GADD45 Δ125–166: truncated rGADD45 containing the first 124 amino acid residues (protein, listed as Homo sapiens)
chain: MTLEEFSAGEQKTERMDKVGDALEEVLSKALSQRTITVGVYEAAKLLNVDPDNVVLCLLAADEDDDRDVALQIHFTLIQAFCCENDINILRVSNPGRLAELLLLETDAGPAASEGAEQPPDLHC

Tests used:
cellular Cdc2 = molecular target: T1, cellular Cdc2 (Homo sapiens, UniProt P06493); assay: GST pull-down from RKO cell lysate, immunoblot for Cdc2; format: binding; details: 100 ng protein, 1 mg RKO cellular protein
T1 construct: GST-GADD45 fusion protein were incubated with one mg of RKO cellular protein; endogenous in cells; host or cells: RKO (human colon carcinoma)
Source text: For these experiments, a recombinant glutathione-S-transferase (GST)/GADD45 fusion protein was constructed. The GADD45 insert was PCR amplified from pHul45B2 using the following primers: (SEQ ID NO:3) 5′[…] 3′ and (SEQ ID NO:4) 5′[…] 3′. Products were cloned into a pcrII vector using the TA cloning kit (Invitrogen, San Diego, Calif.). A representative clone was confirmed by sequencing. The selected insert was removed by XhoI and NotI digestion, gel purified using the Wizard DNA Purification Kit (Promega, Madison, Wis.), and ligated into the XhoI/ NotI digested pGEX4T vector (Pharmacia, Piscataway, N.J.). GST-GADD45 fusion protein induction was prepared from freshly transformed BL21 bacterial cells (Novagen). 150 ml of overnight culture was diluted into 1L of LB with ampicillin and grown at 37° C. to late growth phase (OD600 was approximately 0.8). […]
To detect binding of cellular Cdc2 to GST-tagged GADD45, 100 ng of GST or GST-GADD45 fusion protein were incubated with one mg of RKO cellular protein for 4 hr at […]. […] Antibody was detected by a chemiluminescence system in accordance with the instructions of the manufacturer (Amersham, Buckinghamshire, England)
GST-GADD45 fusion protein or GST alone, which were linked to Sepharose beads, were incubated with cellular lysates, isolated, and analyzed by immunoblotting, as described above.

Cdc2/Cyclin B1 complex [1] = molecular target: T2, Cdc2/Cyclin B1 complex (Homo sapiens, UniProt P06493); assay: Histone H1 kinase assay with Cdc2/cyclin B1 complex immunoprecipitated from RKO cell lysate; format: biochemical; design: One mg of cellular protein was immunoprecipitated with anti-Cyclin B1 antibody and protein A agarose beads; endogenous in cells; host or cells: RKO (human colon carcinoma); details: RKO lysate immunoprecipitate
Experimental: A monoclonal antibody against cyclin B1 was next used to immunoprecipitate Cdc2/cyclin B1 complex from a lysate of human cells. Antibodies against human Cdc2, c-Myc, and NAP-1 were obtained from Santa Cruz Biotechnology, Santa Cruz, Calif. […] The human colon carcinoma line RKO was grown in modified Ham's F12 medium supplemented with 10% fetal bovine serum.
For immunoprecipitation, exponentially growing RKO cells were lysed on ice for 30 min in lysis buffer consisting of 50 mM Tris-HCl (pH 7.5), 120 mM NaCl, 1% NP-40, […], […] and […] of phenylmethylsulfony fluoride. One mg of cellular protein was immunoprecipitated with anti-Cyclin B1 antibody and protein A agarose beads for 4 hr at 4° C. The immunoprecipitates were washed three times with lysis buffer and then loaded onto a SDS-PAGE gel for immunoblot analysis. The presence of Cdc2/Cyclin B1 was confirmed by immunoblotting.
In contrast, rGADD45 had no effect on Cdk2/Cyclin E histone H1 kinase activity. […]
Target sequence in this assay (P06493 whole entry, one chain of several): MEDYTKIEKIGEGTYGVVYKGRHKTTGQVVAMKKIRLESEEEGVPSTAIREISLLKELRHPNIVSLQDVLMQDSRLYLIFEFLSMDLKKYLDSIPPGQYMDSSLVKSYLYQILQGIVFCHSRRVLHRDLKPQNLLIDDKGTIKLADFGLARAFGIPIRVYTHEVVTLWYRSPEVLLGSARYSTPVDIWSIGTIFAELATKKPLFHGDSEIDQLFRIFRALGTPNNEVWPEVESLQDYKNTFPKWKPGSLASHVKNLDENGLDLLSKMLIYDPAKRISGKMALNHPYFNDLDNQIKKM

Cdc2/Cyclin B1 complexes = molecular target: T3, Cdc2/Cyclin B1 complexes (Homo sapiens, UniProt P06493); assay: ELISA binding of rGADD45 proteins to purified Cdc2/Cyclin B1; details: 40 ng protein; for binding to Cdc2/Cyclin B1 in ELISA: 100 ng complex coated
T3 construct: purchased Upstate Biotechnology, Lake Placid, N.Y
Experimental: Immulon II immunoabsorption plates (Dynatech) were coated with 100 ng of Cdc2/Cyclin B1 complexes (Upstate Biotechnology, Lake Placid, N.Y.) in PBS and incubated overnight at 4° C. After rinsing with PBST (PBS with 0.05% Tween-20) and blocking in 5% nonfat milk in PBST, 40 ng of either full length or truncated (both deletion constructs, as described above) rGADD45 protein were added. Following incubation for one hour at room temperature, the plates were washed and an anti-GADD45 antibody (Zymed, San Francisco, Calif.) was added at a 1:1000 dilution in PBST with 0.5% milk (PBSTM). After 1 hr at 25° C., the plates were washed, and HRP-anti-rabbit antibody diluted at 1:1000 in PBS™ was added before final washes and development using the 1-step TMB Solution (Pierce, Rockford, Ill.). Development was halted by the addition of 50 μl of 1M H2SO4, and optical density was measured using a platereader.

Cdk2/Cyclin E = Cdk2/Cyclin E (Homo sapiens, UniProt P24941); assay: Cdk2/Cyclin E histone H1 kinase assay; format: biochemical; details: up to 3600 ng of full length rGADD45
Cdc2/Cyclin B1 complex [2] = molecular target: T2, Cdc2/Cyclin B1 complex; assay: Histone H1 kinase assay with purified Cdc2-Cyclin B1 complexes; format: biochemical; design: purchased Upstate Biotechnology, Lake Placid, N.Y; details: for inhibition of histone H1 kinase activity of purified Cdc2/Cyclin B1 complex: 100 ng complex, varying amounts of protein up to 500 ng
Experimental: In one experiment, 100 ng purified Cdc2-cyclin B1 complexes (Upstate Biotechnology, Lake Placid, N.Y.) were incubated with varying amounts of full length rGADD45 or negative control (NAP 1, Tjandra (1998) Curr. Biol. 8:991–1000; Fujii-Nakata (1992) J. Biol. Chem. 267:20980–20986) polypeptides. For full length rGADD45: 0, 10, 20, 50, 100, 200, and 500 ng were used. For the control (NAP1): 0, 100, 200, and 500 ng were used.
Histone H1 kinase assays were then performed. Briefly, purified Cdc2-Cyclin B1 complexes (Upstate Biotechnology, Lake Placid, N.Y.) were incubated with the indicated amounts of rGADD45 or NAP1 proteins for 5 minutes. Histone H1 kinase assays were then performed in the presence of […] of histone H1 (Upstate, Lake Placid, N.Y.), 15 mM MgCl2, 7 mM β-glycerol phosphate, 1.5 mM EGTA, 0.25 mM sodium orthvanadate, 0.25 mM DTT and […] of [g-32P]ATP in 25 μl. After 15 min at 37° C., the reactions were mixed with an equal amount of standard 2× SDS protein denaturation loading buffer, size-separated on a 12% SDS-PAGE gel, and analyzed by autoradiography.
rGADD45 proteins were prepared as described by Carrier (1994) supra. The rGADD45 proteins that were manufactured included, in addition to the full-length polypeptide, truncated forms containing the first 124 amino acid residues (designated “GADD45 Δ125–166”) or the first 71 amino acid residues (designated “GADD45 Δ72–166”) (see sequence and residue notation of SEQ ID NO:2).
For the histone assays comparing the inhibitory activity of full length and truncated GADD45 constructs, instead of loading samples onto the gel for electrophoretic analysis, […] aliquots were spotted on phosphocellulose paper and then washed three times with 0.75% phosphoric acid. After an acetone rinse, the radioactivity was measured by scintillation counting. The results are the average of three separate experiments.
Target sequence in this assay (P06493 whole entry, species assumed, one chain of several): as the sequence (P06493 whole entry, one chain of several) above

Cdc2/Cyclin B1 complex [3] = molecular target: T2, Cdc2/Cyclin B1 complex; assay: Wash off assay: dissociation of immunoprecipitated Cdc2/Cyclin B1 complexes; format: biochemical; design: One mg of cellular protein was immunoprecipitated with anti-Cyclin B1 antibody and protein A agarose beads; endogenous in cells; host or cells: RKO (human colon carcinoma); details: 0-500 ng protein, 15 min at 25 C
Experimental: Since GADD45 inhibited Cdc2/Cyclin B1 activity, but only associated with Cdc2, the possibility was considered that GADD45 acts by dissociating this complex. To test this, anti-Cyclin B1 antibody was used to precipitate cellular Cdc2/cyclin B1 complexes (as above). A “wash off assay” was then carried out in the presence of GADD45. Briefly, RKO cellular protein was immunoprecipitated with anti-Cyclin B1 antibody. The immunoprecipitates were washed 3 times with lysis buffer and twice with 10 mM Tris-HCl (pH 7.5), 10 mM Mg Cl2. Samples were then suspended in […] of 10 mM Tris-HCl (pH 7.5), 10 mM MgCl2. Various amounts of rGADD45 (0, 50, 100, 200, 500 ng) or NAP1 (0, 200, 500 ng) was added to the Cdc2/Cyclin B1 immunocomplexes and incubated for 15 min at 25° C. Following incubation, immunoprecipitates were washed twice with lysis buffer, loaded onto SDS-PAGE gel for electrophoresis, and the membrane was immunoblotted with monoclonal Cdc2 antibody for the detection of Cdc2 protein. Prior to the final immunoprecipitation, an aliquot of the solution was analyzed by immunoblotting with an anti-Cyclin B1 antibody to confirm uniform loading. […] To confirm uniform levels of Cyclin B1, the amount of Cyclin B1 was measured by immunoblotting.
Target sequence in this assay (P06493 whole entry, one chain of several): as above

T3 sequence (P06493 whole entry, species assumed, one chain of several): as the sequence (P06493 whole entry, one chain of several) above
T1 sequence (P06493 whole entry, the tested form may be a part): as the sequence (P06493 whole entry, one chain of several) above

Molecule	binding to Cdc2/Cyclin B1 in ELISA (Cdc2/Cyclin B1 complexes)	inhibition of histone H1 kinase activity of purified Cdc2/Cyclin B1 complex (Cdc2/Cyclin B1 complex [2])	Cdc2 level remaining in Cyclin B1 immune complexes (dissociation of complex) (Cdc2/Cyclin B1 complex [3])	also measured
GST: glutathione-S-transferase alone, linked to Sepharose beads, control [reference compound]	–	–	–	association with cellular Cdc2 (cellular Cdc2): no Cdc2 was detected
B1	significant binding over background level	strongly inhibited	did reduce the Cdc2 level	inhibition of enzymatic activity of isolated (immunoprecipitated) Cdc2/cyclin B1 complex (Cdc2/Cyclin B1 complex [1]): progressive inhibition; effect on Cdk2/Cyclin E histone H1 kinase activity (Cdk2/Cyclin E): no effect; Cdc2/Cyclin B1 histone kinase activity, % of control (Cdc2/Cyclin B1 complex [2]; 50 ng protein): less than 40%; inhibition of histone phosphorylation by Cdc2/Cyclin B1 (Cdc2/Cyclin B1 complex [2]; larger amounts than 50 ng): strong inhibition
B2	No appreciable binding	failed to inhibit	–	–
B3	–	no appreciable effect	no effect	–
B4	significant binding over background level	able to inhibit	–	binding relative to full-length rGADD45 protein (Cdc2/Cyclin B1 complexes): 77%
